Reference: patent US20190041402A1 (GOVERNING COUNCIL OF THE UNIVERSITY OF TORONTO, published 2019)

Legend:
[1] = molecular target: T1, full-length murine βKlotho expressed in HEK293 cells (mouse, UniProt Q99N32 1-1043); test: immunocytochemistry of transfected HEK293 cells
T1 construct: whole, on cells
T1 sequence (looked up): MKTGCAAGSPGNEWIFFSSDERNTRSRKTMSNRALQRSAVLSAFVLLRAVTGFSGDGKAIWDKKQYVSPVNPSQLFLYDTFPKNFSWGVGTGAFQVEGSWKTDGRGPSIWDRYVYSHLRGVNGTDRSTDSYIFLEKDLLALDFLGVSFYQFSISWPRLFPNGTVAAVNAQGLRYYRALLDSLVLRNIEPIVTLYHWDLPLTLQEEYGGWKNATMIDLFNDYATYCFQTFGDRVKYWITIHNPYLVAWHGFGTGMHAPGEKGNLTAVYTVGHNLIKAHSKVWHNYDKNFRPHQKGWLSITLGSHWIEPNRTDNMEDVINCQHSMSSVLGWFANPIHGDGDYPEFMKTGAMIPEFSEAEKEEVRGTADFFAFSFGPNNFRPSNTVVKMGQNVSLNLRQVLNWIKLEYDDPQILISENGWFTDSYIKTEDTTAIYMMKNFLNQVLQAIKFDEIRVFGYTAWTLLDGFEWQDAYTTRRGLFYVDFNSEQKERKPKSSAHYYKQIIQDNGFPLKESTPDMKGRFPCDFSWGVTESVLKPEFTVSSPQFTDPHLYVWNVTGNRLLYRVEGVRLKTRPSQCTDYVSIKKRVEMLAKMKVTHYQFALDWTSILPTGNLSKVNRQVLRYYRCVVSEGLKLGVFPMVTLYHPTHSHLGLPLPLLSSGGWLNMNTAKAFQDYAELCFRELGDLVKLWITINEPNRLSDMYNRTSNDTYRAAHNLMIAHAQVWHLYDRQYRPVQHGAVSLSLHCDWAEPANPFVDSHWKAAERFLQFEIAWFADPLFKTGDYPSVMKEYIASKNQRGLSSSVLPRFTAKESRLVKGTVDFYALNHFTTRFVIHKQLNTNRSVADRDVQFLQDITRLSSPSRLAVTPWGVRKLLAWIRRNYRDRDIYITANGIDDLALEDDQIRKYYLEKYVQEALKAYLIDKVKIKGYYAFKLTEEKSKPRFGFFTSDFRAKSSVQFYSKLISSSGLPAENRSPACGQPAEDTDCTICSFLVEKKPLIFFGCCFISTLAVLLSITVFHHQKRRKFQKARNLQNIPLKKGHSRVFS

[2] = molecular target: T2, soluble human αKlotho (recombinant) (human, UniProt Q9UEF7 34-981); test: competitive Fab-phage ELISA, soluble human αKlotho against immobilised human αKlotho
T2 construct: also called Hu aKL; recombinant human αKlotho
T2 sequence (looked up): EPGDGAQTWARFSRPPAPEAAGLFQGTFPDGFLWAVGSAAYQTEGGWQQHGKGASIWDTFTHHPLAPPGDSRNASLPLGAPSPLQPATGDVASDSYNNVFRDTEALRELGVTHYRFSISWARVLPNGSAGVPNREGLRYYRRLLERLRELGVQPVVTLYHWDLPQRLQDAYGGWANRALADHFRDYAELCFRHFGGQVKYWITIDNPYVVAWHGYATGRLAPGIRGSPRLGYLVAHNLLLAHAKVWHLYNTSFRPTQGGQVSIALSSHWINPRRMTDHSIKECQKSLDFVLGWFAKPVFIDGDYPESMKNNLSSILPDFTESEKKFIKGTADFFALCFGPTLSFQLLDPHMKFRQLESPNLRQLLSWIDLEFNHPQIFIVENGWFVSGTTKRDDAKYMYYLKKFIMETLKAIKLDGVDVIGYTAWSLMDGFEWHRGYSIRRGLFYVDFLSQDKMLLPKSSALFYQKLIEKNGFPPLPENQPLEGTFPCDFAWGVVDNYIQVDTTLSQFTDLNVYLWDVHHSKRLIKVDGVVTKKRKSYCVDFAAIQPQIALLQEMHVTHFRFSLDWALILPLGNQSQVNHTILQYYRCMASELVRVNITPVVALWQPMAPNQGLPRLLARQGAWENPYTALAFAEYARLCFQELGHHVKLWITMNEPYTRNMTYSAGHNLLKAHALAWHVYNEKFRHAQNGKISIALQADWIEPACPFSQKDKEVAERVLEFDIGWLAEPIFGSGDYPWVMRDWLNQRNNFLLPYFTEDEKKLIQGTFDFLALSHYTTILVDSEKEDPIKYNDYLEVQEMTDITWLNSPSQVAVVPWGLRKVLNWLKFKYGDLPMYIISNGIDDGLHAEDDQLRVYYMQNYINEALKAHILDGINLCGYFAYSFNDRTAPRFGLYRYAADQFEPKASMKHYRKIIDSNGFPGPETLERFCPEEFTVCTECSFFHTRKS
Description: (A) CDR sequences and VH domain framework region residues variable in Library F for anti-αKlotho sb106, according to the IMGT (international ImMunoGeneTics database) numbering scheme. IMGT CDR residues are underlined, IMGT framework region residues are not underlined, residues at IMGT positions which were randomized in the selection library are bold. (B) Specificity determination of anti-αKlotho sb106 by Fab-phage ELISA: sb106 Fab-phage were incubated with the following immobilized antigens: a complex of FGFR1c/αKlotho complex (aKL-R1), FGFR1c alone (R1), human αKlotho (Hu aKL) and mouse αKlotho (Mu aKL), or neutravidin (NA) and bovine serum albumin (BSA) as negative controls. After washing off unbound phage, bound phages were detected using an HRP-conjugated anti-phage antibody. Colorimetric HRP reagents allow for absorbance readings at 450 nm. […] The binding signals to immobilized human αKlotho reported are an average of two data sets.
Binding selections, phage ELISAs and Fab protein purification were performed as described. Briefly, phage from library F were cycled through rounds of panning with the binary complex of αKlotho extracellular domain and FGFR1c ligand-binding domain on 96-well Maxisorp Immunoplates (Fisher Scientific, Nepean, ON, Canada) as the capture target. […]

[3] = molecular target: T2, soluble human αKlotho (recombinant); test: SPR (ProteOn XPR36), Fab captured by anti-IgG(H+L), human αKlotho injected in serial dilutions, Langmuir fit [continued) B.]
Description: Estimated affinities against human and mouse antigen for select αKlotho Fabs were obtained by surface plasmon resonance on a ProteOn XPR36 (FIG. 17). Fabs were captured using an anti-IgG(H+L) antibody and serial dilutions of αKlotho were injected. Binding curves were fitted to the Langmuir model. (A) Determined Kon, Koff and KD values. (B) and (C) Binding curves for human and mouse antigen respectively.

- binding result [1]: no binding (tested: 5 µg/ml)
- IC50 [2]: 1.7 nM
- Kd [3]: 1.02 nM
- koff [3]: 0.000315 s⁻¹
- kon [3]: 308000 M⁻¹ s⁻¹
B1: sb106 Fab (Fab, V domains shown)
VH: EVQLVESGGGLVQPGGSLRLSCAASGFNISYYSIHWVRQAPGKGLEWVAYISPSYGYTSYADSVKGRFTISADTSKNTAYLQMNSLRAEDTAVYYCARYYVYASHGWAGYGMDYWGQGTLVTVSS
VL: DIQMTQSPSSLSASVGDRVTITCRASQSVSSAVAWYQQKPGKAPKLLIYSASSLYSGVPSRFSGSRSGTDFTLTISSLQPEDFATYYCQQAGYSPITFGQGTKVEIKR
notes: also called Fsb106; clone 48
